The text below walks through data of article PMC7859239, “Conserved strategies of RNA polymerase I hibernation and activation” (Nature Communications, 2021).

To fix the notation:
B1: S. pombe common RNA polymerase subunit Rpb12 (natural protein, UniProt P48011 1-63, looked up)
chain: MNHPTSTGGTAFNPPRPATMIYLCADCGARNTIQAKEVIRCRECGHRVMYKMRTKRMVQFEAR
notes: general (common) RNA polymerase subunit Rpb12, S. pombe; source: endogenous, S. pombe, purified as part of Pol I (Ni-NTA, MonoQ, MonoS)
B2: S. pombe Pol I subunit AC40 with C-terminal flag-his tag (natural protein, UniProt O94616 1-348, looked up)
chain: MAAVDRSRTEISVLSDRVTDVGSVDFPGYYFDEDNIWDLDKFKKNLKVSITSLDQETMVFEISGIDASIANAFRRILIAEIPTLAFEFVYIINNTSIIQDEVLSHRIGLVPISADPDMFKWFQHPLPGQEATHTDYDTVVFSLNKKCEFNKNAATDEKDPKRLYVNSEVYSGDLIWKPQGRQEERFADNPIRVVNPDIVVAKLRPGQEIDLEAHAILGIGQDHAKFSPVATASYRLLPTIHILSPIEGEDAVKFQKCFPKGVIELEEGPDGKKQARVADVRKDTVSRECLRHPEFADKVQLGRVRDHYLFSVESTGIMKPDVLFIKSIAVLKSKCLAVKSSLQNISSD
notes: RNA polymerase I and III subunit AC40, S. pombe; source: endogenous, genomically tagged S. pombe strain, purified as part of Pol I (Ni-NTA, MonoQ, MonoS); not shown: 10xHis, C-terminal, kept
B3: S. pombe Pol I subunit A43 (natural protein, UniProt O43036 1-173, looked up)
chain: MPDLSLYKQTVDLYLSIAPGHSRDPLNAIQEHMDSMILSKLPRINGIVLAYDNIRFLEKSAKVMYDSPFSFIWVRVDVLVFSPKKGDCLEGKINLVSPSHIGLLILGIFNASIPRKSIPKDWIFIEPDTTEEQGRWKTNDGNILEPGKDLEFVVDGIQREAGLTMVQGTLANS
notes: RNA polymerase I stalk subunit A43, S. pombe; Lacks the connector domain of the S. cerevisiae protein; also called stalk subunit A43; source: endogenous, S. pombe, purified as part of Pol I (Ni-NTA, MonoQ, MonoS)
B4: S. pombe Pol I subunit A135 (natural protein, UniProt Q9P7X8 1-1174, looked up)
chain: MSFQTLERERTFKNPPKDGTSFPDLQKAVKPHVDSFNALTNAGLLNYAVKEIGEKCAFDSITQEEGGALKFGNKISFRVDEVQIAKPMLSSRERSSINRKVYPAEARERLTTYKSRLVLKFSWSVNGGPRQSEMREVGMIPIMVRSNRCHLEGLSPAELIAHKEESEEMGGYFIVNGIEKLIRMLILPKRNHPTAIIRPSFANRGTSYSQYGLSIRCVRPDQSSLTNTLHYLNNGVTMFRFHWRKNEYLIPSMMILKALLETSDKEIFEGIVGKDLGNTFLTDRVELMLRAYKSYGLYSQTETLQYLGSKFRVVLGVAEDLTDVEVGRFLLQKVVLVHLREAKDKFRLLLFMIRKLYALVAGECCADNPDSPQHQEILLGGFLYGQILKEKIEDWLNSIRAQINLDVRRSAPGVDFSDRKYLTRVFSKINNDIGTKLQYFLSTGNLVSNTGLDLQQATGYTVVAEKLNFYRFLSHFRMVHRGAFFAELKTTTVRKLLPEAWGFMCPVHTPDGSPCGLLNHLARKCEIVTHPSDVSQIPSLLLSLGVDPPSVVGHESGWGCVQLDGKIVGWCTYKLAKHVADVLRLMKIEYAVKLRNGTATEPAKVPLDLEIGYVPPSHNGQYPGLYLFSNPARMVRPVKHISTGELDMLGPFEQVYMDIACFPKEIVPKVSTHVEYSPTNVLSIVANMTPFSDFNQSPRNMYQCQMGKQTMGTPGTALRYRTDNKLYRLQTGQTPVVRPKLHNTYGLDHYPNGTNAVVAVISYTGYDMEDAMILNKSAHERGFGYGTVYKGESFDLSQKRRRGEPVVHHFGFAPGSTPRREWLQKLDADGLPFIGIKLEDGDPIVAYYDESTGQNFIETYHGTEPGFVDEVRLLGNDVGDSECQQIHVKLRITRSPIIGDKFSSRHGQKGICSQKWPTVDMPFTESGMQPDIIINPHAFPSRMTIGMFIESLAGKAGACHGLAQDSTPFIYSEQQTAADYFGEQLVKAGYNYHGNEPMYSGITGQEMKADIYIGVVYYQRLRHMVSDKFQVRTTGPIHNLTRQPVKGRKRAGGIRFGEMERDAVIGHGTSFLMQDRLMNCSDYAQSWVCRDCGSIISIMSTISMNGVGSASEVRCRSCAKPALGLEDTSDIWQDGSGKKFVGGTNTTLIALPSVFNYLTAELTAMNIKMMLEVK
notes: RNA polymerase I subunit A135, S. pombe; source: endogenous, S. pombe, purified as part of Pol I (Ni-NTA, MonoQ, MonoS)

In assay [1] the target is T1, S. pombe Pol I subunit A190 (Schizosaccharomyces pombe (endogenous …, UniProt P15398 1-1689)).
T1 construct: RNA polymerase I subunit A190, S. pombe; source: endogenous, S. pombe, purified as part of Pol I (Ni-NTA, MonoQ, MonoS)
Kind of assay: cryo-EM structure; dimer particles in the 'monomer' dataset of BS3-crosslinked Sp Pol I after SEC (5 mM HEPES pH 7.8, 1 mM MgCl2, 10 µM ZnCl2, 150 mM KCl, 5 mM DTT); C2 symmetry imposed; 4.5 Å; model by placing two monomers and rigid body fitting of subdomains. The conditions noted are these: both partners purified.

Assay [2] deals with B4. Described as above. The settings on record: both partners purified.

T1 sequence (P15398 whole entry): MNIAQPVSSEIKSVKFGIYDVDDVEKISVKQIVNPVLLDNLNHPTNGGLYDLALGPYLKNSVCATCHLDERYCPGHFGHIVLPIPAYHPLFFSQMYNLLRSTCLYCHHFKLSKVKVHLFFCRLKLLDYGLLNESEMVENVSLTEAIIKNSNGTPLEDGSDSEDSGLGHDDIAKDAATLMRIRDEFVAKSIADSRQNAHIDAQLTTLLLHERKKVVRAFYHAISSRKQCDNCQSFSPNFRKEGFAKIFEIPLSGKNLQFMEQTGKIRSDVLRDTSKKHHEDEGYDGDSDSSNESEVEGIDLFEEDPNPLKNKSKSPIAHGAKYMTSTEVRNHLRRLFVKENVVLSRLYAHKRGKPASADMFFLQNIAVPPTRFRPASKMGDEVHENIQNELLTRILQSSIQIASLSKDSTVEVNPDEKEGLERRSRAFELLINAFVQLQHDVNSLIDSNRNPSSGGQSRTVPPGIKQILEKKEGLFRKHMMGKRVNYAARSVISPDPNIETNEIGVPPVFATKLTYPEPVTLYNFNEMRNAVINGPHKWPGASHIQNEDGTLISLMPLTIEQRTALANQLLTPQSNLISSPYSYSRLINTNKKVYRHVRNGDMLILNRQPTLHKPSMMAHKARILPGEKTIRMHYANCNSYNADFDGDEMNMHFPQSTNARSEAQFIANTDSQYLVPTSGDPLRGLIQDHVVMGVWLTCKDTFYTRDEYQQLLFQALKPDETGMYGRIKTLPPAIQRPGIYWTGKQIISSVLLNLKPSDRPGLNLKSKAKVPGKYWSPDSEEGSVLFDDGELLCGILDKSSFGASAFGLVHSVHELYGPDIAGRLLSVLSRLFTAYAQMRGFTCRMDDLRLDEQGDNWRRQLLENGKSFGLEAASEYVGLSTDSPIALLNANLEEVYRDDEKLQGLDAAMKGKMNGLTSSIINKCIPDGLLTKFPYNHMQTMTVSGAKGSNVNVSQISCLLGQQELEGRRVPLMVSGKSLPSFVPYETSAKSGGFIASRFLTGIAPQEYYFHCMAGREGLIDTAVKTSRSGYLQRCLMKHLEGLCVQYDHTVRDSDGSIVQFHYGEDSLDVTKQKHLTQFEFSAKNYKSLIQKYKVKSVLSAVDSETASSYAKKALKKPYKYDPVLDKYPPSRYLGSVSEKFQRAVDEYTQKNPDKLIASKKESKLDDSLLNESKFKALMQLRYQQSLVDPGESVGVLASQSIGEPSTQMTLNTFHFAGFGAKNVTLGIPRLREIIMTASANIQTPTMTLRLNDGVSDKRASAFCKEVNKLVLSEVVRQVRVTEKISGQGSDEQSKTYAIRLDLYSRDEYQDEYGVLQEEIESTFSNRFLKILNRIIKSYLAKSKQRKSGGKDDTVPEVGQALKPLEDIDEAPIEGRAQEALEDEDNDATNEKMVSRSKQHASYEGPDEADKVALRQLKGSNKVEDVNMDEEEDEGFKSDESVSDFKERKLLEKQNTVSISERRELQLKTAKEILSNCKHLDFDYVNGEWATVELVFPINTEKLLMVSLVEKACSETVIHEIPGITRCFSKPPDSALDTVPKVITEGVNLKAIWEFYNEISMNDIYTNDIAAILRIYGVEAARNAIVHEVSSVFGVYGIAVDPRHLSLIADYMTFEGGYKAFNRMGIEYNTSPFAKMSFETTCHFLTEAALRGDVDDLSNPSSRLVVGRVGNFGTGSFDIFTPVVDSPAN

B1: the binding result in assay [1] is on record as “binds”. On to B2, for which the binding result in assay [1] was “binds”. With B3, in assay [2], the binding result was “binds”. In the case of B4, the binding result in assay [1] is reported as “binds”.
